Measured values: patent US12459997B2, “Compounds and methods targeting interleukin-19” (Eli Lilly and Company, priority 2018, dated 2025)

Legend:
Ps0 patients [1] = assay: Ps0 study in anti-TNFα treatment groups: serum IL-19 and PASI; type: in vivo, human; settings: for IL-19 serum levels (geometric mean) / % of patients with serum IL-19 concentration ≤ 21 pg/mL / % patients with serum IL-19 concentration ≤ 21 pg/mL achieving at least PASI 75 / % patients with serum IL-19 concentration ≤ 21 pg/mL not achieving at least PASI 75: 50 mg biweekly subcutaneous
From the text: (§1) According to an exemplified embodiment, a sandwich ELISA assay for the sensitive detection of IL-19 is provided herein. According to an exemplified embodiment, a first IL-19 antibody (selected from Table 1, 2 or 3) is utilized as an IL-19 capture antibody and a second IL-19 antibody (selected from Table 1, 2 or 3) is utilized as an IL-19 reporter antibody. […] According to some embodiments, one milligram of the first IL-19 antibody (the capture antibody) is biotinylated using Pierce biotinylation kit (Cat #) and one milligram of the second IL-19 antibody (the reporter antibody) is labeled with ruthenium using MesoScale Discovery (MSD) kit for electrochemiluminescent (ECL) detection. According to such embodiment, labeled antibodies are evaluated using MALDI-TOF to ensure suitable labeling, and then diluted in 50% glycerol and stored at −20° C. prior to use.
(§2) Streptavidin-coated 96-well MSD plates are washed three times with TBST (Tris buffered saline containing 10 mmol/L Tris pH 7.40, 150 mmol/L NaCl with 1 mL Tween 20/L) and then blocked with TBS-T plus 1% BSA for 1 hour at room temperature. Plates are again washed and wells are then incubated with biotinylated IL-19 capture antibody (1 mg/L) for 1 hour. Thereafter, plates are again washed prior to patient sample testing.
(§3) During patient sample testing, a standard curve is generated using 50 μL of recombinant human IL-19 control standard (serially diluted IL-19 recombinant protein ranging from 100-0.0001 ng/L, and including a zero blank, in assay buffer of 50 mmol/L HEPES, pH 7.40, 150 mmol/L NaCl, 10 mL/L Triton X-100, 5 mmol/L EDTA, and 5 mmol/L EGTA). […] Patient samples (which, according to the present invention, may include blood, serum or plasma) are diluted 1:4 in assay buffer and added to respective wells. The plate is incubated overnight at 4° C. Following incubation, wells are aspirated and washed 3 times with TBST. Thereafter, 50 μL of ruthenium-labeled IL-19 detection antibody (0.5 mg/L) is added to the wells for a 1-hour incubation at room temperature. Following incubation, wells are aspirated and washed 3 times with TBST. Thereafter, 150 μl of 2×MSD read buffer is added. Ruthenium electrochemiluminescence in the wells is detected using a MSD Sector 6000 plate reader. Data is analyzed and IL-19 MSD immunoassay calibration curve fitting is performed using MesoScale Discovery software. SAS® software version 9.4 (PROC MIXED) is used for assessing treatment effects on IL-19 levels using a mixed effects model with an unstructured covariance matrix and log10 transformed IL-19 concentrations (SAS. Version 9.4 for UNIX; SAS Institute Inc.: Cary, N.C., 2016). Statistical analysis is generated with the ggplot and pROC packages using R version 3.3.3 statistical computing environment (www.R-project.org, Vienna, Austria, 2017).
A study of IL-19 levels, in serum of 35 Ps0 patients that were complete responders when treated with the FDA approved TNFα antagonist, entanercept, is performed. Treatment groups of 50 mg of etanercept (n=35) administered biweekly or placebo are compared. Administration of both treatment groups is subcutaneous. […] IL-19 levels are assessed for prognostic value with PASI improvement at weeks 4 and 12. Serum IL-19 concentration levels are presented in Table 11; prognostic values at week 4 showing correlations of IL-19 serum levels and PASI in psoriasis patients (21 ng/L indicates the upper limit of the normal range of IL-19 in healthy subjects) is presented in Table 12; prognostic values at week 12 showing correlations of IL-19 serum levels and PASI in psoriasis patients (21 ng/L indicates the upper limit of the normal range of IL-19 in healthy subjects) is presented in Table 13.

[2] = biological target: T1, human IL-19 / human IL-20R beta Fc-fusion protein (Homo sapiens, UniProt Q9UHD0); assay: BLI in vitro neutralization: IL-19 captured by antibody, then incubated with IL-20R beta Fc; settings: block of IL-19 binding to soluble receptor
T1 sequence (Q9UHD0 25-177): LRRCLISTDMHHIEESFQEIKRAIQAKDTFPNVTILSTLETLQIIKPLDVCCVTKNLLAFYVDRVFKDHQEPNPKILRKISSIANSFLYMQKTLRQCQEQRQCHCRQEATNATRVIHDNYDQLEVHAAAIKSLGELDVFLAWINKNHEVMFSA
From the text: Alternatively, a biophysical assay such as bio-layer interferometry (BLI) may be used for assessing neutralization of IL-19 by antibodies of the present invention. Binding between a ligand immobilized on the biosensor tip surface and an analyte in solution produces an increase in optical thickness at the biosensor tip, which results in a wavelength shift (expressed in nm). According to such assay, the IL-19 receptor (i.e., […]) is expressed in a membrane-free manner (such as with an Fc-fusion e.g. IL20Rbeta Fc chimera protein from R&D Systems catalog 1788-IR-050). […] The immobilized antibodies are then incubated with recombinant human IL-19 protein diluted to 100 nM using HBS-EP+ running buffer (GE Healthcare, 10 mM Hepes pH7.4+150 mM NaCl+3 mM EDTA+0.05% surfactant P20) for 240-300 secs. The human IL-19, after binding to the anti-IL-19 antibody, is assessed by incubation with human IL-20R beta Fc-fusion protein for 240-300 secs. The ability of the antibody to block or neutralize binding of the IL-19 ligand to the soluble receptor is observed as a minimal (<0.025 nm) increase in the wavelength during this step of the assay.

Ps0 patients [3] = assay: Ps0 study in anti-IL-23 treatment groups: serum IL-19 and PASI; type: in vivo, human
From the text: as §1, §2, §3
A study of IL-19 levels, in serum of Ps0 patients treated with a therapeutic antibody targeting IL-23, mirikizumab, is performed. […] Administration of each treatment group, as a single subcutaneous dose, occurs at day 0. […] IL-19 levels are also assessed for prognostic value with PASI improvement between visits 2 and 12. Serum IL-19 concentration levels are presented in Table 14; a comparative of serum levels at week 8 is presented in Table 15; and prognostic values at week 8 showing correlations of IL-19 serum levels and PASI in psoriasis patients (21 ng/L, indicates the upper limit of the normal range of IL-19 in healthy subjects) are presented in Table 16.

etanercept
IL-19 serum levels (geometric mean) (Ps0 patients [1]; Week 0 (baseline)): 98.2 pg/mL
IL-19 serum levels (geometric mean) (Ps0 patients [1]; Week 1): 42.3 pg/mL
% of patients with serum IL-19 concentration ≤ 21 pg/mL (Ps0 patients [1]; week 4): 37.9% (44/116)
% patients with serum IL-19 concentration ≤ 21 pg/mL achieving at least PASI 75 (Ps0 patients [1]; week 4): 22.7% (10/44)
% patients with serum IL-19 concentration ≤ 21 pg/mL not achieving at least PASI 75 (Ps0 patients [1]; week 4): 77.3% (34/44)
IL-19 serum levels (geometric mean) (Ps0 patients [1]; week 4): 24.3 pg/mL
% of patients with serum IL-19 concentration ≤ 21 pg/mL (Ps0 patients [1]; week 12): 42.9% (69/161)
% patients with serum IL-19 concentration ≤ 21 pg/mL achieving at least PASI 75 (Ps0 patients [1]; week 12): 49.3% (34/69)
% patients with serum IL-19 concentration ≤ 21 pg/mL not achieving at least PASI 75 (Ps0 patients [1]; week 12): 50.7% (35/69)
IL-19 serum levels (geometric mean) (Ps0 patients [1]; week 12): 14.2 pg/mL
median reduction in serum IL-19 (Ps0 patients [1]; after 1 week): greater than 40 pg/mL
median reduction in serum IL-19 (Ps0 patients [1]; at week 4): > 70 pg/mL

B1: M_2: murine-derived IL-19 antibody; LC SEQ ID NO: 10, HC SEQ ID NO: 14 (antibody)
heavy: LVQLQQSDAELVKPGASLKISCKVSGYTFTDHALHWMKQRPEQGLEWIGYIYPRDGSTKYNEKFKGKATLTADRSSSTAYMELNSLTSEDSAVYFCARGWDFAMDYWGQGTSVTVSSAKTTPPSVYPLAPGSAAQTNSMVTLGCLVKGYFPEPVTVTWNSGSLSSGVHTFPAVLQSDLYTLSSSVTVPSSTWPSETVTCNVAHPASSTKVDKKIVPRDCGCKPCICTVPEVSSVFIFPPKPKDVLTITLTPKVTCVVVDISKDDPEVQFSWFVDDVEVHTAQTQPREEQFNSTFRSVSELPIMHQDWLNGKEFKCRVNSAAFPAPIEKTISKTKGRPKAPQVYTIPPPKEQMAKDKVSLTCMITDFFPEDITVEWQWNGQPAENYKNTQPIMDTDGSYFVYSKLNVQKSNWEAGNTFTCSVLHEGLHNHHTEKSLSHSPGK
light: DIVLTQSPESLAVSLGQRATISCRASESVDNYGISFIHWYQQKPGQPPKLLIYRASNLKSGIPARFSGRGSRTDFTLTINPVETDDVATYYCQQINKDPLTFGAGTKLELKRADAAPTVSIFPPSSEQLTSGGASVVCFLNNFYPKDINVKWKIDGSERQNGVLNSWTDQDSKDSTYSMSSTLTLTKDEYERHNSYTCEATHKTSTSPIVKSFNRNEC
Neutralization [2]: No

B2: mirikizumab (antibody, chains of the INN, looked up, V domains shown)
VH: QVQLVQSGAEVKKPGSSVKVSCKASGYKFTRYVMHWVRQAPGQGLEWMGYINPYNDGTNYNEKFKGRVTITADKSTSTAYMELSSLRSEDTAVYYCARNWDTGLWGQGTTVTVSS
VL: DIQMTQSPSSLSASVGDRVTITCKASDHILKFLTWYQQKPGKAPKLLIYGATSLETGVPSRFSGSGSGTDFTLTISSLQPEDFATYYCQMYWSTPFTFGGGTKVEIK
notes: therapeutic antibody targeting IL-23
IL-19 (geometric mean) serum levels (Ps0 patients [3]; 5 mg single subcutaneous dose, Day 1 (baseline)): 16.2 pg/mL
IL-19 (geometric mean) serum levels (Ps0 patients [3]; 5 mg single subcutaneous dose, Day 15): 13.9 pg/mL
IL-19 (geometric mean) serum levels (Ps0 patients [3]; 5 mg single subcutaneous dose, Day 29): 10.4 pg/mL
IL-19 (geometric mean) serum levels (Ps0 patients [3]; 5 mg single subcutaneous dose, Day 57): 13.2 pg/mL
IL-19 (geometric mean) serum levels (Ps0 patients [3]; 5 mg single subcutaneous dose, Day 71): 14.5 pg/mL
IL-19 (geometric mean) serum levels (Ps0 patients [3]; 20 mg single subcutaneous dose, Day 1 (baseline)): 37.2 pg/mL
IL-19 (geometric mean) serum levels (Ps0 patients [3]; 20 mg single subcutaneous dose, Day 15): 27.2 pg/mL
IL-19 (geometric mean) serum levels (Ps0 patients [3]; 20 mg single subcutaneous dose, Day 29): 25.4 pg/mL
IL-19 (geometric mean) serum levels (Ps0 patients [3]; 20 mg single subcutaneous dose, Day 57): 33.5 pg/mL
IL-19 (geometric mean) serum levels (Ps0 patients [3]; 20 mg single subcutaneous dose, Day 71): 28.4 pg/mL
IL-19 (geometric mean) serum levels (Ps0 patients [3]; 60 mg single subcutaneous dose, Day 1 (baseline)): 49.8 pg/mL
IL-19 (geometric mean) serum levels (Ps0 patients [3]; 60 mg single subcutaneous dose, Day 15): 9.0 pg/mL
IL-19 (geometric mean) serum levels (Ps0 patients [3]; 60 mg single subcutaneous dose, Day 29): 10.8 pg/mL
IL-19 (geometric mean) serum levels (Ps0 patients [3]; 60 mg single subcutaneous dose, Day 57): 11.9 pg/mL
IL-19 (geometric mean) serum levels (Ps0 patients [3]; 60 mg single subcutaneous dose, Day 71): 10.9 pg/mL
IL-19 (geometric mean) serum levels (Ps0 patients [3]; 120 mg single subcutaneous dose, Day 1 (baseline)): 52.4 pg/mL
IL-19 (geometric mean) serum levels (Ps0 patients [3]; 120 mg single subcutaneous dose, Day 15): 26.6 pg/mL
IL-19 (geometric mean) serum levels (Ps0 patients [3]; 120 mg single subcutaneous dose, Day 29): 25.2 pg/mL
IL-19 (geometric mean) serum levels (Ps0 patients [3]; 120 mg single subcutaneous dose, Day 57): 22.2 pg/mL
IL-19 (geometric mean) serum levels (Ps0 patients [3]; 120 mg single subcutaneous dose, Day 71): 18.2 pg/mL
IL-19 (geometric mean) serum levels (Ps0 patients [3]; 200 mg single subcutaneous dose, Day 1 (baseline)): 69.6 pg/mL
IL-19 (geometric mean) serum levels (Ps0 patients [3]; 200 mg single subcutaneous dose, Day 15): 36.0 pg/mL
IL-19 (geometric mean) serum levels (Ps0 patients [3]; 200 mg single subcutaneous dose, Day 29): 23.3 pg/mL
IL-19 (geometric mean) serum levels (Ps0 patients [3]; 200 mg single subcutaneous dose, Day 57): 21.9 pg/mL
IL-19 (geometric mean) serum levels (Ps0 patients [3]; 200 mg single subcutaneous dose, Day 71): 22.5 pg/mL
IL-19 (geometric mean) serum levels (Ps0 patients [3]; 300 mg, Week 0 (Baseline)): 106.5 pg/mL
IL-19 (geometric mean) serum levels (Ps0 patients [3]; 300 mg, Week 8 (End of induction)): 18.2 pg/mL
% of patients with serum IL-19 concentration ≤ 21 pg/mL (Ps0 patients [3]; 300 mg, week 8): 58.3% (28/48)
% patients with serum IL-19 concentration ≤ 21 pg/mL achieving at least PASI 75 (Ps0 patients [3]; 300 mg, week 8): 71.4% (20/28)
% patients with serum IL-19 concentration ≤ 21 pg/mL not achieving at least PASI 75 (Ps0 patients [3]; 300 mg, week 8): 28.6% (8/28)
IL-19 (geometric mean) serum levels (Ps0 patients [3]; 350 mg single subcutaneous dose, Day 1 (baseline)): 58.4 pg/mL
IL-19 (geometric mean) serum levels (Ps0 patients [3]; 350 mg single subcutaneous dose, Day 15): 35.2 pg/mL
IL-19 (geometric mean) serum levels (Ps0 patients [3]; 350 mg single subcutaneous dose, Day 29): 22.4 pg/mL
IL-19 (geometric mean) serum levels (Ps0 patients [3]; 350 mg single subcutaneous dose, Day 57): 23.7. pg/ml
IL-19 (geometric mean) serum levels (Ps0 patients [3]; 350 mg single subcutaneous dose, Day 71): 18.0 pg/mL
IL-19 (geometric mean) serum levels (Ps0 patients [3]; 600 mg single subcutaneous dose, Day 1 (baseline)): 57.3 pg/mL
IL-19 (geometric mean) serum levels (Ps0 patients [3]; 600 mg single subcutaneous dose, Day 15): 30.1 pg/mL
IL-19 (geometric mean) serum levels (Ps0 patients [3]; 600 mg single subcutaneous dose, Day 29): 21.8 pg/mL
IL-19 (geometric mean) serum levels (Ps0 patients [3]; 600 mg single subcutaneous dose, Day 57): 14.4. pg/ml
IL-19 (geometric mean) serum levels (Ps0 patients [3]; 600 mg single subcutaneous dose, Day 71): 15.8 pg/mL
